Experimental data taken from PMC10303457 (Viruses, 2023).

Biological target: Mouse IMPα1 residues 70–529 (lacking the IMPβ binding domain) (mouse, UniProt P52293 70-529)
Assay: crystal structure
Conditions: both partners purified

VRRAGKYYSVEYCKRKID [HeV M NLS2 peptide (untagged)]: binds.

SGKRKKIRTIAAYPLGVGKS [HeV M NLS1 peptide (untagged)]: binds.
